{
  "source": "the DeepSol protein solubility set",
  "data": [
    {"test": "soluble on expression in E. coli; label from the status in PepcDB or PDB records", "values": [
      {"sequence": "MINAVGNPQTLLLLGGTSEIGLAICEEYLKKAPMRVILAALPGDPGRDAAVAQLKAAGANAVDVIDFDAVDTESHPKVIDEAWAKSDVDVAIVAFGLLGDAEELWQNQRKAVQIAEVNYTAAVSVGVLVGEKMKAQGFGQIIAMSSAAGERVRRSNFVYGSTKAGLDGFYLGLGEALREFGPRVLVIRPGQVRTRMSADVKEAPLTVNKEDVAKLAVTSAEKGKDLVWAPGAFRYVMMILRHIPRPIFKKLPI", "soluble on expression in E. coli": "not soluble"},
      {"sequence": "MINDIKILGVGGSPRKNGNTDVLLDSFLKGAESAGVETKKVLLRDYSIEPCIGCERCRKTGTCTRFHDGMSLLYPEIEAAKGLTLGSPTYNYNVTALMKAFIDRLYPYYNFTNVRPRRYSSKLAGQGRKAIVFSVCEQLEIEEMGFTLGALGMPLEALGYEIVEKFPVTGYFDRGAVSRDEELLRKTFEAGKKMAEALHLEHHHHHH", "soluble on expression in E. coli": "not soluble"},
      {"sequence": "MINIDPPSGDCPASGGSSTHNIVSESESRLAFKVKSSNNESYRVRPVYGFVDAKGKAKLDVNRLAGPPKEDKLVIQYARVPADETDPKAPFAAGAQQGEVVVKMVAT", "soluble on expression in E. coli": "not soluble"},
      {"sequence": "MINKDTQLCMSLSGRPSNFGTTFHNYLYDKLGLNFIYKAFTTQDIEHAIKGVRALGIRGCAVSMPFKETCMPFLDEIHPSAQAIESVNTIVNDNGFLRAYNTDYIAIVKLIEKYHLNKNAKVIVHGSGGMAKAVVAAFKNSGFEKLKIYARNVKTGQYLAALYGYAYINSLENQQADILVNVTSIGMKGGKEEMDLAFPKAFIDNASVAFDVVAMPVETPFIRYAQARGKQTISGAAVIVLQAVEQFELYTHQRPSDELIAEAAAFARTKFLEHHHHHH", "soluble on expression in E. coli": "soluble"},
      {"sequence": "MINKLKENIGSVFVGKENVIDLLLVSLLADGHVLLENVPGTGKTLLAKTISKSIGGSFSRVQFTPDVLPSDVTGIEYFNPKTSEFELRIGPVMTNILLADEINRAMPRTQSSLLEAMEERQVTLEKQSTPLPKPFFVIATQNPIESQGTFPLPDAQLDRFLMTISIGHPTPKDELQMMRRFRNDLPLESVTSVISLEDILEAQKRVKEIFVSEPLEHYIIKLAHATRNHDYIANGVSPRATLALVRAVQALAFLRGREYCTPEDIQLLVPSVWNHRIVLSMEGALRTTKNDIMQSILKEVDVPVEIEQA", "soluble on expression in E. coli": "not soluble"},
      {"sequence": "MINNVLVWKQPNISWIHPINIDNSINANNFNFDYLDTLNKLRSSNLKILELRDIADKISDGPFGSQLKVEEYKEQGFPVYRVKNIIDTQILDDDIVYIDAKKQQQLKRSEVLPGDVLITKAGRIGSAAVVPSKFGNGNITSHLVLVRLKKTINNYYLVAYLECKYGKVITGRESYKSTRPELTKNEIGNVIIPIPSPEIQKYIGDKVRKAEELREEAKRLKKEAETFLYEMIQLKPLNDFDKDMFSFVNSNYIDSERLDSEYYKTKYITLEKLLKSKKVTSFKDIIIESKYGASVPADYTMVGIPFIRGNNLTDNEINIDDIVYLNKKLKDEVKDHHVNTGDILITRSGTVGISAVVDEKCDGFSFGSFMIKLRIDMRIWNPYYIAAFLNSFWGKWQIERLQNGAVQQNINLQEIGRIIIPIISKENQDKIEELIKNYINKKRQSKQLIQEAKQDVEDLIEGNFDMSKVKANS", "soluble on expression in E. coli": "soluble"},
      {"sequence": "MIPLFNFAIKQFMNQRMKNIRGFMEHPIETQQRVLKNLLQQAALTEWGKTHGYKDIQSNEQFAQQVPVSTYETFYPWIERCLKGEQQILWQSDIDWFSKSSGTTNAKSKFIPVSKESLKDCHYKGGMDLLTLYFDNAPESKLFQGKSLAVGGSCSPNPHRDNSKIGDISAVIMANLPTWAQYARTPSIQTALMNEWEAKIDKLAEECSKENVTNLSGVPTWAVLLLEYMLEKSGKENMLEIWPHFECFFHGAVSFHPYKTAFQKFFPSDKVRYMETYNASEGFFGVQDDLSRDDLLLYLDHGIYYEFIPIDEIDAEFPKTISLEQVQLNEAYALVISTNSGLWRYNVGDVVRFTSITPYRIKITGRTKHYINVFGEELMVENAEMAVSKACEATNAVLANFTAGPIYFNNENKGGHEWIIEFETAPGDKDRFTQLLDQFLKELNSDYEAKRYKDMALLLPTIHFVPEGTFYKWLKLKGKLGGQHKVPRLSNNREYLEDILTKCL", "soluble on expression in E. coli": "not soluble"},
      {"sequence": "MIPRVRAPELPQNYPWLNTEQPLSIKQLNGRVVILDFWTYCCINCLHVLPDLKYLEQKYKDSLTVIGVHSAKFDNEQETENIRQAILRYDIEHPVLVDKDFRVWQEYAVRAWPTLMVIDPKGYVIGYVSGEGNRDKLDQLITQVIQEHQGAINFQQLSLTLEKQRQPLITPLAFPGKVLATPSGLFVADSGHHRIVVSDFNGEILHLIGNGKSGLTDGNFQEAQFSAPQGMAFDMENQILYLADTENHALRRVDINQQTVETIAGTGEQSRNIQPHGGVGLETALNSPWDLVNIENSLYIAMAGVHQIWQMDLASGVIKTYAGTGVEACLDASLTESAFAQPSGITNNEQELYIADSEISSIRGVGLVEPQEVRTVCGSGGLFGFGDVDGQGEDVRLQHCLGVEYFQNYLWVADTYNHKIKSVSPHTGNCQTVLGDGLAGLQNGQGKNTRFFEPSGLSAIDSYLYISDTNNHVIRRVDLRTLEVTTMQFNGLCAPDVCIPNNFLEHHHHHH", "soluble on expression in E. coli": "not soluble"},
      {"sequence": "MIPSRSARIIAKLQRLHSTTSAASVSSIDVKEVEKFGDLSAEWADELGPFHALHSLNRIRVPWIVDNVRKSDQKAPPRLVDVGSGGGLLSIPLARSGFDVTGIDATKQAVEAANQSLTAKPLQIAGISKRLRFEHTSVEDFCQKPHNKSAYDAVVASEIVEHVADLPGFIGCLAELARPGAPLFITTINRTWLSKLAAIWLAENVLKIVPPGVHDWEKFITPAELTSHLEKAGCRVTAVHGLMFHPVGNHWTWIESTQCNYGILAVKN", "soluble on expression in E. coli": "not soluble"},
      {"sequence": "MIRLVIVEPEGSYNLGFISRLAKNFLVDELYIVNPHCDLEEAKKFSAKGLEYLEKAKIVNNFDEAIKDVELKIATSSIADIKGDILRKSIRPWELPRIIEGKKVALIFGRESVGLTREEIAKSDLLLFIPGNPEYPVLNLSHAVGIVLYEIWKSRGENKPVISGEAISLIDKYSRDLVNLIKSNEGDEAMYIALKRALIKGIGDEEEARTIIRLLRKLYIKLTRKIE", "soluble on expression in E. coli": "soluble"},
      {"sequence": "MIRSFADRDTELVWLREGAKRVDPRIHKVANRKLHLLDAATTLDALRVTPGNRLETLEGDRVGQYSIRVNDQWRICFRWNDSGPENVEIVDYH", "soluble on expression in E. coli": "not soluble"},
      {"sequence": "MIRSSIDLMLKTGAAALAKNFENRDPIAGQREILARLVVAAAVTRFGRDHGFAELAGEPFDRLYAEFRRRVPIRTYADFWRDYFSAWQSDANGSQRLLLEDVTWPGRIPFFCETSGTTAPTKYIPFSREMFAANKRAAIDLTACYLHRTPRSRLFQGKLLYMAGNTSLTDLGNGVQSGDMSGITLRHRPFYLRPFVAPGMAVSALPWEEKVVELAGLLLSDRSIRGISGVPPWIILLLQRVEEMGHRPIAELLPNLELIIHGGTSMKPYRREFDGLFPRRRPHFLEVLPSSEAFMAFQLPGEDRMRLVPHYGAFFEFIPIEDLDEGGTPAADAPTVPLEAVETGRRYAVILTTCAGLWRYHIGDTLRFTALSPHFIEFTGRDRFLDRFEEKVTQGEVEEAVARLNQLDGIEVREFMVGPDIGERRHLWVLAVGEMNERSGDVLGRHLDATLRSLNADYATFRSQGRIAGPRVVTVSGDVIYRWSKEVRGKLGGQSKIPHVDPTVEGEMVASLAAFARRFQACWIADSFQGFGPTGRVKVQNSSNFTGSRSLPERTRPSSSVVLEHHHHHH", "soluble on expression in E. coli": "not soluble"},
      {"sequence": "MIRVTIEREADGRIRAFTMEGHAHFAKRGQDIVCAGASAVSFGTINAIETLIGVSPHVSLGKDGGYLRCELPELEEAAAEKVQLLLEAMVVSLKTIERDYGTFIRVTSI", "soluble on expression in E. coli": "not soluble"},
      {"sequence": "MISNKRRPKIKIWNKEQMALYLKAIKKDRLYAAFVTDSKSGLRKSELLALRWSDIDFSTGLTKIERGWVRSPKGTLYLSDLKSENSERTLVFSTDLLKVLLEHKSRQDEEKKTAGKNYIDNGLVFCREDGSYINPSTFTRRHYDLTAKAKLPRISVHALRHSISTALLESGKVDLKQIQEMLGHKDISTTGNYYTDVLERMKQKTSELIDNLIQTELEHHHHHH", "soluble on expression in E. coli": "not soluble"},
      {"sequence": "MISNQVLQNTLEGLKEISRTEFCIIDTEGKVLATTFADFSIQPGDIQAFVESQADSQLVKGFQYFKVCDDYQLEYILVAHGDDEDTYMVGKLAAFQIQNLIVAYKERFDKDSFIKNLLLDNLLLVDIYNRAKKLHIDADVRRVVMILELQQEKDHSSMESVKSFFGGKSKDFITAVDEKSIIIVKELEDGEGYAEMDKLAHAILDTLGLNQNEETHIAYGTIVNELKEVSRSYKEARMALDVGKIFFGEKDVIAYSSLGIGRLIYQLPIPLCKMFIKEIFENKSPDDFDEETLVTIDKFFENSLNVSETSRQLYIHRNTLVYRLDKLQKSTGLDLRVFEDAITFKIALMVVRYMKYMETLEY", "soluble on expression in E. coli": "not soluble"},
      {"sequence": "MISRIHIEEFRDIGDLELFFLPGVNLLIGDNGSGKTSVLKACQYVLGTFFCGFKMDHTPTWTQLTPEAKDFRRRVSSDGDELMKHPIKFNFDLRYEENGQNPIELTDQILTKRNTLGRALTTTFQDHQDYTKGLLEGYATDEGRYRPLPVFVFYSVEDIHTKRKVSHSLFQKYRHMASFGYYHALTENAFLDFWIKRMLILREEEQAGNHELAVVRGALLSALGTDGAGVLQDLSIRINKKAVYWKLLDGREISSEHLPDGLRRVISIVVDLAFRCALLNQTLYQSDSALKSEGTVLIDEIDLHLHPRLQASILKGLRKAFPRLQFIITSHAPMVMSSVDADDKYNIVYKMSYNQEMSQYEALKQSTYGLDVSTIMRMILGLAPRDKQVDERLTHLFDLIDLEKYSEATIALQSLQDQFDDSLPELSKASVMLHFLSSEQNEENH", "soluble on expression in E. coli": "not soluble"},
      {"sequence": "MISSLAVEFGALRLACTSKIVMATRNMPARGTKPLPRHLWDMSDLEEKTSGQYTHKPLRINRLGGRDPETGRKVNQHIGGGVKFDYFMIDFHRRGPADQGATYDERILEIRRDPNRTCHIALCAGINGKRWILATENMKAGDVISTSGHLSENPVIGVEGNAYPIGSLAAGTVINSIERYPTMDSETFVKAAGTSATIVRHQGDFTVVKLPHKHEFSLHRTCMATVGRLSHADIDGKIFGSAQMHRRFGYKMSSGLFHKKDGYFGRKVRALPPVRILDTPPQAPPPNQRFTLSKKDLSGLHGHAKVHNLIPAGYSTRDYPE", "soluble on expression in E. coli": "not soluble"},
      {"sequence": "MISVVIPAKDEVGNIGPLMKEICQALQGVTEFEILVVDDGSQDDTFGEVIHTAELMLCNAKAIRHERSTGQSTAISTGVLHARGQYIVTLDADGQNDPADIPAMLAQLPQIHAEHFCIAGYRKNRKDTAWKRFQSRFANKVRDALLHDGVPDTGCGLKLFPRETFLRMPYFDHMHRYIPALVRRMGGEVFISVVNHRDRQLGVSKYTAWNRVWVGIVDIMGVIWLGRRAKIAKVARSETRWHDLEHHHHHH", "soluble on expression in E. coli": "soluble"},
      {"sequence": "MITKRQLSILNAIVEDYVDFGQPIGSKTLIHRHHLDVSPATIRNEMKQLEEMHFIEKTHTSSGRVPSESGIRYYVNRLLEQTSHQSQNKIQRLNQLLIENHYDSSTALTNFAHELSMKSQYATLVVRPNHKQDVINDIHLIRANNHLIILVMVFSSGHVENIHFVSHAQLNNINLNKIANFLTEHFSFNRKVLTQNIESYFSQKEELLLANEVVEMINLQIGNQSNSIYMGGKVKLIDALNESNVSSIQPILQYIESNKITELLEDISTSQINVRIGKEIDDSLSDISIVTSQYHFDESLKGQIAVIGPTAMHYQNVIQLLNRIW", "soluble on expression in E. coli": "not soluble"},
      {"sequence": "MITLWGRNNSTNVKKVLWTLEELELPYDQILAGGKFGVNQDADYLAMNPNGLVPLLKDDETDLLLWESNAIVRYLAAQYGQNRLWVDNPARRAEGEKWMDWANQTLSPAHRVILMGLVRTPPEKRDQAAIEAGIEKCDSLFALLDDALAHQPWFSGDNFGTGDIAIAPFVYNLLNVGLKWTPRPNLERWYQQLTERPAFRKVVMIPVT", "soluble on expression in E. coli": "not soluble"}
    ]}
  ]
}
